Experimental data published in patent US8741840B2, “BMP-7 for use in treating neointimal hyperplasia” (Washington University, priority 2008, dated 2014).

Test system: hVSMC
Test: RT-PCR of contractile VSMC markers in hVSMC
Format: cell-based, human
Experimental: Cell Culture: Human adult aorta were obtained from seven cadaveric organ donors rejected because of atherosclerosis by Mid-America Transplant Services (St. Louis, Mo.) and enzymatically digested to obtain Human Smooth Muscle Cells (HSMC). Medial tissue was separated from the adventia and intima and digested with collagenase type I (Worthington, Lakewood, N.J.) 2 mg/ml for 1 hr, and washed with Hank's balanced salt solution (HBSS). Further digestion followed with collagenase type II 1 mg/ml (Worthington, Lakewood, N.J.) and elastase 0.25 mg/ml (Worthington, Lakewood, N.J.) for 4 hrs. Cell suspensions were washed twice with HBSS and cultured in T-75 flasks for three weeks in a 95%/5% air/CO2 humidified environment at 37° C. The growth medium used was DMEM containing […] glucose (high glucose), 10% fetal bovine serum (FBS, Atlas, Fort Collins, Colo.), 1 mM sodium pyruvate, 100 units/ml Penicillin and […] Streptomycin (Sigma, St Louis, Mo.). Cell purity was assessed by positive immunostaining for α-smooth muscle actin and calponin and for the absence of von Willebrand factor. In all experimental protocols, cells were seeded at 1×10^5 cells/well in six-well plates. Medium was changed on the first day and every third day thereafter. In all cases, cells used were between passages two and five (Table 3).
RT-PCR: RNA was extracted from cell cultures using RNeasy Mini Kits (Qiagen, Valencia, Calif.). Semi-quantitative RT-PCR was conducted using Roche 1st Strand cDNA Synthesis Kit (Indianapolis, Ind.) and PCR kit from Invitrogen (Grand Island, N.Y.) according to manufacturer's instructions using a two-step method. […] The number of cycles necessary to amplify cDNA but remain within the exponential amplification range was determined for each primer set. […] Genomic contamination was assessed by heat inactivation of the reverse transcriptase prior to RT-PCR. Primers were designed using Vector NTI soft ware (Invitrogen, Grand Island, N.Y.) and optimal conditions for each prime pairs were determined (Table 4). […] The band intensity was analyzed first by scanning the gel on a Typhoon 9410 gel imager (Amersham Biosciences), quantified by using TotalLab software v2003.03 (Nonlinear Dynamics, Durham, N.C.) and normalized for loading by comparison to GAPGH. […]
Expression of contractile VSMC markers in human cells. […] Calponin (Panel A), alpha smooth muscle actin (alpha SMA) (Panel B), heavy chain myosin (MHSCM) (Panel C), and SM22 alpha (Panel D) message levels detected by RT-PCR were low in hVSMC in basal conditions (open bars, Group A) and in the presence of high phosphorus media (black bars, Group B). […] The data in Panels A-D were normalized to the expression level in basal culture conditions and expressed as fold induction, mean±SEM, n=3. […]

B1: BMP-7: bone morphogenetic protein-7 (osteogenic protein-1), mineralization-countering morphogen; provided by Johnson and Johnson (protein, listed as Homo sapiens)
chain: STGSKQRSQNRSKTPKNQEALRMANVAENSSSDQRQACKKHELYVSFRDLGWQDWIIAPEGYAAYYCEGECAFPLNSYMNATNHAIVQTLVHFINPETVPKPCCAPTQLNAISVLYFDDSSNVILKKYRNMVVRACGCH
In the case of B1, the Calponin message level (high phosphorus media plus BMP-7 (FIG. 8A)) is reported as “induced expression of each of the marker proteins”, the “alpha smooth muscle actin (alpha SMA) message level” value (high phosphorus media plus BMP-7 (FIG. 8B)) is reported as “induced expression of each of the marker proteins” and the “heavy chain myosin (MHSCM) message level” value (high phosphorus media plus BMP-7 (FIG. 8C)) is reported as “induced expression of each of the marker proteins”. For the same molecule, the “SM22 alpha message level” value (high phosphorus media plus BMP-7 (FIG. 8D)) was “induced expression of each of the marker proteins”.
